The results in this text go back to patent US20230151068A1.

The assay concerns the target biotinylated His-Avi-TEAD (194-411) (UniProt P28347). In words: SPR, biotinylated TEAD immobilized on the chip, Siderocalin-YAP as analyte.

pKd: −log10 of the molar value.

Broadly, the pKd is the negative decadic logarithm of the Kd, by convention in mol/L.

Sequence of Siderocalin-fused YAP (50-171) (P80188 other isoform, or with tags, fused parts or gaps): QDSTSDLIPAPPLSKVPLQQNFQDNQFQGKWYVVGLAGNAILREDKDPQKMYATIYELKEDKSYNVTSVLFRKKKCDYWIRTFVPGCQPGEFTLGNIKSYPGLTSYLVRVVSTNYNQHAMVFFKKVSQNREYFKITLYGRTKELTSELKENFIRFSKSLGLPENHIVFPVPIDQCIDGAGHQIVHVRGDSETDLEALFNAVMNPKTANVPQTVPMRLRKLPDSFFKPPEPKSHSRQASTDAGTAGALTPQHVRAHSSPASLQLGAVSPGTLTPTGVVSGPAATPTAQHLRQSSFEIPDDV

In the case of “Siderocalin-fused YAP (50-171) (from UniProt P80188 21-198; P46937 50-171)”, the pKd was 6.24.
